Article PMC4751342

Columns and labels:
[1] = target: human Izumo1, immobilized AVEXIS bait, Q8IYV9; assay: AVEXIS; conditions: chain shown with the change;; parent: est. 0.16; read off a plot
[2] = target: T1, mouse Izumo1, immobilized AVEXIS bait, Q9D9J7; assay: AVEXIS; conditions: chain shown with the change;; parent: est. 0.51; read off a plot
T1 chain: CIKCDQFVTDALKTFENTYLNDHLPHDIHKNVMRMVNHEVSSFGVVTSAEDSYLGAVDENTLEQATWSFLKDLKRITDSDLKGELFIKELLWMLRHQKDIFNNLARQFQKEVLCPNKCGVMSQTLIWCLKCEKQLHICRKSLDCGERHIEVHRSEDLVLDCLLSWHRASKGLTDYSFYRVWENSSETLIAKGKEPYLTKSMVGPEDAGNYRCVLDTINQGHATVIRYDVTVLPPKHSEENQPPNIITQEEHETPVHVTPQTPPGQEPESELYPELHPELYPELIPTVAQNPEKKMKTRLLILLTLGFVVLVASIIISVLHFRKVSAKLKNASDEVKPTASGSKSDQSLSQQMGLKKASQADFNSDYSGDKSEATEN

Chain of human Izumo1, immobilized AVEXIS bait, Q8IYV9 (Q8IYV9 22-350): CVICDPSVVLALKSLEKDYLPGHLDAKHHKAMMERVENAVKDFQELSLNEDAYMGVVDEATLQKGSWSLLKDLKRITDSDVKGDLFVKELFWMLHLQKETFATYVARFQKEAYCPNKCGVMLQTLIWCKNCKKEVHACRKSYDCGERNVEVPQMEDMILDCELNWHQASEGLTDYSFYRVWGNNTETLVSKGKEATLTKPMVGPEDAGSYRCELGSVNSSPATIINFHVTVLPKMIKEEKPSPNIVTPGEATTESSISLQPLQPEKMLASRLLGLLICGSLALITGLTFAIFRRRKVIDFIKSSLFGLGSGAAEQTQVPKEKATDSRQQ

- response [1]: 0.17 A 485 nm
- response [2]: 0.5 A 485 nm
B1: mouse Juno, wild type, AVEXIS prey, Q9EQF4 N185S (protein)
chain: GDKLLSVCMNSKRHKQEPGPEDELYQECRPWEDNACCTRSTSWEAHLEEPLLFNFSMMHCGLLTPACRKHFIQAICFHECSPNLGPWIQPVVPNGQEEQRVWGVPLCQEDCEDWWRACHSSLTCKSNWLHGWDWSEEKKHCPAHEPCLPFSYHFPTPDDLCEKIWSNTFKASPERRNSGRCLQKWFEPTLSNPNVEVALHFAG
